In patent US20180273604A1 (ALBERT EINSTEIN COLLEGE OF MEDICINE, published 2018):
Each block holds one binder with its values, some of them ahead of it.

B1: ICOS-L, human, expressed on HEK 293 cells (ligand, UniProt O75144 19-302, looked up)
chain: DTQEKEVRAMVGSDVELSCACPEGSRFDLNDVYVYWQTSESKTVVTYHIPQNSSLENVDSRYRNRALMSPAGMLRGDFSLRLFNVTPQDEQKFHCLVLSQSLGFQEVLSVEVTLHVAANFSVPVVSAPHSPSQDELTFTCTSINGYPRPNVYWINKTDNSLLDQALQNDTVFLNMRGLYDVVSVLRIARTPSVNIGCCIENVLLQQNLTVGSQTGNDIGERDKITENPVSTGEKNAATWSILAVLCLLVVVAVAIGWVCRDRCLQHSYAGAWAVSPETELTGHV
notes: whole, on cells; Expressed as GFP or mCherry fusion; Library form: ectodomain on the mouse PD-L1 transmembrane segment with GFP; also called Human ICOS-L

Tests used:
[1] = biological target: T1, tumor necrosis factor receptor 1B (TNFR-1B), human, expressed on HEK 293 cells (human, UniProt P20333 23-461); experiment: listed as newly discovered in this disclosure (cell-cell FACS screens)
T1 construct: also called TNFR-1B-mCHERRY; Human TNFR-1B; not shown: C-terminal fluorescent protein (mCherry as query, GFP as library or panel member)
T1 sequence: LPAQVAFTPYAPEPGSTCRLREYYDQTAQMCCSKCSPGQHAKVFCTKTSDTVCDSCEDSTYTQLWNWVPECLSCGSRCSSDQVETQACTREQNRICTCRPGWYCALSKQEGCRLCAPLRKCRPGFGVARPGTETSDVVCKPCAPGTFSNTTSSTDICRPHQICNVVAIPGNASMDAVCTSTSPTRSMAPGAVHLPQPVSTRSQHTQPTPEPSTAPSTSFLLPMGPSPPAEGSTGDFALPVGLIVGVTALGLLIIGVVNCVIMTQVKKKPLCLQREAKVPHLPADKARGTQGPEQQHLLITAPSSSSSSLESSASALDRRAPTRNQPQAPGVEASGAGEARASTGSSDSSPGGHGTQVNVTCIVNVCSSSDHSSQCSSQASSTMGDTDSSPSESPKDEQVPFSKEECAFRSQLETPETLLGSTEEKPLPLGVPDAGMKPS

[2] = biological target: T2, TNFR-1B mutant D58A (human, UniProt P20333 23-461); experiment: cell-cell FACS, mutant-mCherry cells vs ligand-GFP cells
T2 construct: Point mutant expressed as mCherry fusion in HEK 293 cells; not shown: C-terminal mCherry fusion
T2 sequence: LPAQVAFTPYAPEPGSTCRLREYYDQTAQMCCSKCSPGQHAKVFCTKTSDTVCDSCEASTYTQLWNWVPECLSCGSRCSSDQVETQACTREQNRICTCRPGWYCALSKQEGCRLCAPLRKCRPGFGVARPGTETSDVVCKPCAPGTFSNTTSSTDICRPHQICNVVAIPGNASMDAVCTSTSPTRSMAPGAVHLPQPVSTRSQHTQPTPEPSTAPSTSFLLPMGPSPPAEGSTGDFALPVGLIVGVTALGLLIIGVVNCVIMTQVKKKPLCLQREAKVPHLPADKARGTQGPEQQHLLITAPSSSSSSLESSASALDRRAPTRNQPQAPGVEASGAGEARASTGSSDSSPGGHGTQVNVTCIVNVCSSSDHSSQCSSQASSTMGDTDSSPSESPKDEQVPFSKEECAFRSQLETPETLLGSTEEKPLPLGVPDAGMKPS

[3] = biological target: T3, TNFα, cell-surface displayed on HEK 293 cells (Homo sapiens (Human), UniProt P01375 1-233, Expressed as a GFP fusion on HEK 293 cells. GFP is left out of the chain. The native protein is a homotrimer.); experiment: as above
T3 construct: also called TNF-alpha; cell surface expressed TNFα
T3 sequence (P01375 whole entry, form in doubt, the tested form may be a part): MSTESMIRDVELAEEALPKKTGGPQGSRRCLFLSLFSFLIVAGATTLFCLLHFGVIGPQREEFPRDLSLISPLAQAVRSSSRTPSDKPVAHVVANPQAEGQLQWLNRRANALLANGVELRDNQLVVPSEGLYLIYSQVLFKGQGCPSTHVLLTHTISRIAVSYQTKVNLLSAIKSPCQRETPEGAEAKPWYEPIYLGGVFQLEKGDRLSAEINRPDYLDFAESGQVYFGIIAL

[4] = biological target: B1; experiment: as above
[5] = biological target: T4, NGFR, human, expressed on cells (human, UniProt P08138 29-427); experiment: cell-cell FACS screen, NGFR query cells vs GFP library cells
T4 construct: whole, on cells
T4 sequence (looked up): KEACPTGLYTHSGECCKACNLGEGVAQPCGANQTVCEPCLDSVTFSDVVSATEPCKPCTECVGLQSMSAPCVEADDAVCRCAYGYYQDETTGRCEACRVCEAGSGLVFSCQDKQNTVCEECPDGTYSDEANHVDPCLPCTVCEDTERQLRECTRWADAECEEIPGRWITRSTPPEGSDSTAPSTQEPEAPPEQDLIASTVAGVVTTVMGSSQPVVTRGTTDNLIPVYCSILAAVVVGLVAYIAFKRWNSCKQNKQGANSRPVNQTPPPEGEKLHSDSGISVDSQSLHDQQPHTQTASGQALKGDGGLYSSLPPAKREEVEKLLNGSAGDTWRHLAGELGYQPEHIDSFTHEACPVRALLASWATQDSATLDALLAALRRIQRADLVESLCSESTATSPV

[6] = biological target: T5, mouse TNFR-1B (mouse, UniProt P25119 23-258); experiment: mouse constructs tested; assay not described (data not shown)
T5 construct: also called mouse ortholog of TNFR-1B
T5 sequence (looked up): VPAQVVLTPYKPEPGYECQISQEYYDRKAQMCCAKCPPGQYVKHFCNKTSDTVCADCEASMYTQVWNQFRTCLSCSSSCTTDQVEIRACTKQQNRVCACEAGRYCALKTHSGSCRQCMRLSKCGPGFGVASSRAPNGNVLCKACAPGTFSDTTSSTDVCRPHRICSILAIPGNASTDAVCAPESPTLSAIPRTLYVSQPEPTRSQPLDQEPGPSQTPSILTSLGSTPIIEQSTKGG

[7] = biological target: T1, tumor necrosis factor receptor 1B …; experiment: soluble ICOS-L Fc on transfected cells, flow cytometry

Binder: B1
binding result [1]: binds | binding result [2]: binds

B3: TNFR-1B mutant N171D (receptor)
chain: LPAQVAFTPYAPEPGSTCRLREYYDQTAQMCCSKCSPGQHAKVFCTKTSDTVCDSCEDSTYTQLWNWVPECLSCGSRCSSDQVETQACTREQNRICTCRPGWYCALSKQEGCRLCAPLRKCRPGFGVARPGTETSDVVCKPCAPGTFSNTTSSTDICRPHQICNVVAIPGDASMDAVCTSTSPTRSMAPGAVHLPQPVSTRSQHTQPTPEPSTAPSTSFLLPMGPSPPAEGSTGDFALPVGLIVGVTALGLLIIGVVNCVIMTQVKKKPLCLQREAKVPHLPADKARGTQGPEQQHLLITAPSSSSSSLESSASALDRRAPTRNQPQAPGVEASGAGEARASTGSSDSSPGGHGTQVNVTCIVNVCSSSDHSSQCSSQASSTMGDTDSSPSESPKDEQVPFSKEECAFRSQLETPETLLGSTEEKPLPLGVPDAGMKPS
notes: Point mutant expressed as mCherry fusion in HEK 293 cells; not shown: C-terminal mCherry fusion
binding as percent of wild-type [3]: ~50 % of wild-type | binding as percent of wild-type [4]: ~50 % of wild-type

B6: TNFR-1B mutant K42D (receptor)
chain: LPAQVAFTPYAPEPGSTCRLREYYDQTAQMCCSKCSPGQHADVFCTKTSDTVCDSCEDSTYTQLWNWVPECLSCGSRCSSDQVETQACTREQNRICTCRPGWYCALSKQEGCRLCAPLRKCRPGFGVARPGTETSDVVCKPCAPGTFSNTTSSTDICRPHQICNVVAIPGNASMDAVCTSTSPTRSMAPGAVHLPQPVSTRSQHTQPTPEPSTAPSTSFLLPMGPSPPAEGSTGDFALPVGLIVGVTALGLLIIGVVNCVIMTQVKKKPLCLQREAKVPHLPADKARGTQGPEQQHLLITAPSSSSSSLESSASALDRRAPTRNQPQAPGVEASGAGEARASTGSSDSSPGGHGTQVNVTCIVNVCSSSDHSSQCSSQASSTMGDTDSSPSESPKDEQVPFSKEECAFRSQLETPETLLGSTEEKPLPLGVPDAGMKPS
notes: as for B3
binding as percent of wild-type [3]: ~50 % of wild-type | binding as percent of wild-type [4]: ~50 % of wild-type

B8: ICOS-L Fc-fusion protein (soluble, purified) (Fc fusion, human, UniProt O75144 19-256, looked up, not shown: a dimerising Fc or GST)
chain: DTQEKEVRAMVGSDVELSCACPEGSRFDLNDVYVYWQTSESKTVVTYHIPQNSSLENVDSRYRNRALMSPAGMLRGDFSLRLFNVTPQDEQKFHCLVLSQSLGFQEVLSVEVTLHVAANFSVPVVSAPHSPSQDELTFTCTSINGYPRPNVYWINKTDNSLLDQALQNDTVFLNMRGLYDVVSVLRIARTPSVNIGCCIENVLLQQNLTVGSQTGNDIGERDKITENPVSTGEKNAAT
notes: Expressed in HEK 293 cells, purified by Ni2+-NTA and gel filtration; Used soluble or on protein A microbeads; also called ICOS-L Fc (IgG2a); ICOS-L mIgG2a
binding result [7]: binds

The next lines start with results.

binding as percent of wild-type [3]: ~50 % of wild-type | binding as percent of wild-type [4]: ~50 % of wild-type
B2: TNFR-1B mutant T48A (receptor)
chain: LPAQVAFTPYAPEPGSTCRLREYYDQTAQMCCSKCSPGQHAKVFCTKASDTVCDSCEDSTYTQLWNWVPECLSCGSRCSSDQVETQACTREQNRICTCRPGWYCALSKQEGCRLCAPLRKCRPGFGVARPGTETSDVVCKPCAPGTFSNTTSSTDICRPHQICNVVAIPGNASMDAVCTSTSPTRSMAPGAVHLPQPVSTRSQHTQPTPEPSTAPSTSFLLPMGPSPPAEGSTGDFALPVGLIVGVTALGLLIIGVVNCVIMTQVKKKPLCLQREAKVPHLPADKARGTQGPEQQHLLITAPSSSSSSLESSASALDRRAPTRNQPQAPGVEASGAGEARASTGSSDSSPGGHGTQVNVTCIVNVCSSSDHSSQCSSQASSTMGDTDSSPSESPKDEQVPFSKEECAFRSQLETPETLLGSTEEKPLPLGVPDAGMKPS
notes: as for B3

binding result [2]: binds
B4: MadCAM-1, human, expressed on HEK 293 cells (ligand, UniProt Q13477 19-382, looked up)
chain: QSLQVKPLQVEPPEPVVAVALGASRQLTCRLACADRGASVQWRGLDTSLGAVQSDTGRSVLTVRNASLSAAGTRVCVGSCGGRTFQHTVQLLVYAFPDQLTVSPAALVPGDPEVACTAHKVTPVDPNALSFSLLVGGQELEGAQALGPEVQEEEEEPQGDEDVLFRVTERWRLPPLGTPVPPALYCQATMRLPGLELSHRQAIPVLHSPTSPEPPDTTSPESPDTTSPESPDTTSQEPPDTTSPEPPDKTSPEPAPQQGSTHTPRSPGSTRTRRPEISQAGPTQGEVIPTGSSKPAGDQLPAALWTSSAVLGLLLLALPTYHLWKRCRHLAEDDTHPPASLRLLPQVSAWAGLRGTGQVGISPS
notes: whole, on cells; GFP or mCherry fusion; library form has the ectodomain on the mouse PD-L1 transmembrane segment
binding result [1]: binds

binding result [5]: binds
B5: B7-1, human, expressed on cells (ligand, UniProt P33681 35-288, looked up)
chain: VIHVTKEVKEVATLSCGHNVSVEELAQTRIYWQKEKKMVLTMMSGDMNIWPEYKNRTIFDITNNLSIVILALRPSDEGTYECVVLKYEKDAFKREHLAEVTLSVKADFPTPSISDFEIPTSNIRRIICSTSGGFPEPHLSWLENGEELNAINTTVSQDPETELYAVSSKLDFNMTTNHSFMCLIKYGHLRVNQTFNWNTTKQEHFPDNLLPSWAITLISVNGIFVICCLTYCFAPRCRERRRNERLRRESVRPV
notes: whole, on cells

binding result [6]: no binding
B7: mouse ICOS-L (ligand, UniProt Q9JHJ8 47-277, looked up)
chain: ETEVGAMVGSNVVLSCIDPHRRHFNLSGLYVYWQIENPEVSVTYYLPYKSPGINVDSSYKNRGHLSLDSMKQGNFSLYLKNVTPQDTQEFTCRVFMNTATELVKILEEVVRLRVAANFSTPVISTSDSSNPGQERTYTCMSKNGYPEPNLYWINTTDNSLIDTALQNNTVYLNKLGLYDVISTLRLPWTSRGDVLCCVENVALHQNITSISQAESFTGNNTKNPQETHNNE
notes: also called mouse ortholog of ICOS-L
